According to patent publication US20110269234:

Tested on: KDR-targeted ZFN pair (artificial)
Assay: cell_activity
Settings: HeLa; up to about 25% with 30 C cold shock versus 1% at 37 C

KDR locus target
activity (% modified chromatids): 25
